From paper PMC11870458

Legend:
[1] = biological target: HsItaly2011 RBD-human IgG Fc fusion (HsItaly2011 (bat MERSr-CoV from Hypsugo savii, Italy)); experiment: BLI
[2] = biological target: VsCoV-a7 RBD-human IgG Fc fusion (VsCoV-a7 (bat MERSr-CoV from Vespertilio sinensis, Japan)); experiment: BLI

Substance	Kd [1] [nM]	Kd [2] [nM]
soluble dimeric R.nor ACE2 ectodomain (from UniProt Q5EGZ1 18-740) (domain or fragment)	121	–
soluble dimeric E.fus ACE2 ectodomain (domain or fragment)	–	816
